Data taken from publication PMC10952133, “Phytocystatin 6 is a context‐dependent, tight‐binding inhibitor of Arabidopsis thaliana legumain isoform β” (The Plant Journal, 2023).
Like-named read-outs stand apart in the source and are kept apart here. Each block holds one molecule with its values, some of them ahead of it.

Experiments:
[1] = target: Arabidopsis thaliana legumain isoform β, activated (AtLEGβ) (Arabidopsis thaliana) (UniProt Q39044); assay: enzyme inhibition kinetics (Ki, Morrison equation); turnover of 50 μM Z-Ala-Ala-Asn-AMC by 50 nM legumain, 25°C, 20 mM citric acid pH 5.5, 100 mM NaCl, 0.02% Tween 20, 2 mM DTT; inhibitor in 1:2 serial dilutions from 15-fold the enzyme concentration, quadruplicates
[2] = target: Arabidopsis thaliana legumain isoform β, activated (AtLEGβ) (Arabidopsis thaliana) (UniProt Q39044)
[3] = target: human legumain, activated (hLEG) (human) (UniProt Q99538); assay: enzyme inhibition kinetics (Ki, Morrison equation); turnover of 50 μM Z-Ala-Ala-Asn-AMC by 50 nM legumain, 25°C, 20 mM citric acid pH 5.5, 100 mM NaCl, 0.02% Tween 20, 2 mM DTT; inhibitor in 1:2 serial dilutions from 15-fold the enzyme concentration, quadruplicates
[4] = target: Arabidopsis thaliana legumain isoform γ, activated (AtLEGγ) (Arabidopsis thaliana) (UniProt Q39119); assay: as above
[5] = target: T1, Papain from Carica papaya (Carica papaya, UniProt P00784 134-345); assay: enzyme inhibition kinetics (Ki, Morrison equation); turnover of 50 μM Z-Phe-Arg-AMC by 50 nM papain, 25°C, 20 mM MES pH 6.0 (legend of Figure 3: pH 6.5), 50 mM NaCl, 0.02% Tween 20, 2 mM DTT; inhibitor in 1:2 serial dilutions from 15-fold the enzyme concentration, quadruplicates
T1 construct: papain of Carica papaya, used as a model of the papain-like cysteine proteases; source: bought: Merck
T1 sequence (looked up): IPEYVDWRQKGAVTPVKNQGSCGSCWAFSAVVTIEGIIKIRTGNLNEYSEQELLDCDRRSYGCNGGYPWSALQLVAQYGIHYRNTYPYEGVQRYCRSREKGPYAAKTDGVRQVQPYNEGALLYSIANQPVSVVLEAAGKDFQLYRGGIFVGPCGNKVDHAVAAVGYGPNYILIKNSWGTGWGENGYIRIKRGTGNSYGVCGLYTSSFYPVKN

Arabidopsis thaliana legumain isoform β, activated (AtLEGβ) (Arabidopsis thaliana), sequence (Q39044 22-486): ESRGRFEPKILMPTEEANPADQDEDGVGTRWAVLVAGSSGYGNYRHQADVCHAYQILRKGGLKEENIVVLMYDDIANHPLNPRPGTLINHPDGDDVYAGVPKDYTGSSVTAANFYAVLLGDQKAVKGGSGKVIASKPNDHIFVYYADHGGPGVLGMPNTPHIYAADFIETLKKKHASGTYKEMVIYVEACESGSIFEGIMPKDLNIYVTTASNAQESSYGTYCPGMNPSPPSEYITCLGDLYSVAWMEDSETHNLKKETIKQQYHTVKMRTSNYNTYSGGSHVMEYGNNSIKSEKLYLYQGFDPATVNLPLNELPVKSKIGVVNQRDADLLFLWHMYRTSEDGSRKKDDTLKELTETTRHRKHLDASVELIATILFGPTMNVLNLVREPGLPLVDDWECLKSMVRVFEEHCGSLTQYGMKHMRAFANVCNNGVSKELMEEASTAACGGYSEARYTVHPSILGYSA
human legumain, activated (hLEG) (human), sequence (Q99538 18-323): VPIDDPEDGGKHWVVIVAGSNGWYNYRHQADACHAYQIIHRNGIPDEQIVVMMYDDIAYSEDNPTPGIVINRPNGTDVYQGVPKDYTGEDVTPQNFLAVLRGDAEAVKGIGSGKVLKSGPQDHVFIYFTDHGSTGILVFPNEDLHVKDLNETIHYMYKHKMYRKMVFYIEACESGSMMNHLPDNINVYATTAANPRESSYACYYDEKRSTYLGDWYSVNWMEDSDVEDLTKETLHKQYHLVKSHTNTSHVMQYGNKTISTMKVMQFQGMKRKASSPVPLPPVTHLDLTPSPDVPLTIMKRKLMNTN
Arabidopsis thaliana legumain isoform γ, activated (AtLEGγ) (Arabidopsis thaliana), sequence (Q39119 30-494): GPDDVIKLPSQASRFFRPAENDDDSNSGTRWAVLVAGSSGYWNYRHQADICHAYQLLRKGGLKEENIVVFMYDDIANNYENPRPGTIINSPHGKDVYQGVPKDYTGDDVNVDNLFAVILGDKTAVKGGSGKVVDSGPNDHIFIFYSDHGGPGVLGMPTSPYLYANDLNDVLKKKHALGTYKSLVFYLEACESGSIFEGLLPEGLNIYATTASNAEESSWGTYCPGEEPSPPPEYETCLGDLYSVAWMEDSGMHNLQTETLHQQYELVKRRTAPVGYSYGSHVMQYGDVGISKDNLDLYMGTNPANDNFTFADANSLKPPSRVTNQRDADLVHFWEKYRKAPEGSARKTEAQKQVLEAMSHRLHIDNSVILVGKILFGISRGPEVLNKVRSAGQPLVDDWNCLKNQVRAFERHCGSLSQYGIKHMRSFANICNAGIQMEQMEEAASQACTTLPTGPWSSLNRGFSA

Molecule: AtCYT6-CTD-K208A (domain or fragment)
Ki [1]: 3.98 nM

Molecule: AtCYT6-CTD-R205A (domain or fragment)
Ki [1]: 3.36 nM

B1: N-terminal domain of AtCYT6 (AtCYT6-NTD, A35-D127) (domain or fragment, Arabidopsis thaliana, UniProt Q8H0X6-1 35-127, looked up)
chain: ALVGGVGDVPANQNSGEVESLARFAVDEHNKKENALLEFARVVKAKEQVVAGTLHHLTLEILEAGQKKLYEAKVWVKPWLNFKELQEFKPASD
notes: Arabidopsis thaliana cystatin 6, N-terminal cystatin domain, residues A35-D127; Cloned into pET-28; source: E. coli BL21(DE3), purified (Ni-NTA, SEC)
Ki ([5]; both partners purified): 6.3 ± 1.43 nM

More lines, now with the values ahead:

inflection temperature T i of AtLEGβ by nanoDSF at pH 6.5, equimolar AtCYT6-CTD (AtLEGβ alone 49.6°C) [2]: 57 °C | Ki [3]: 61.4 nM | Ki [1]: 0.61 nM | Ki [4]: 0.86 nM
Molecule: C-terminal domain of AtCYT6 (AtCYT6-CTD, E142-D235) (domain or fragment)

Ki [1]: 0.68 nM
Molecule: C-terminal domain of AtCYT6 carrying the interdomain linker (AtCYT6-CTDlong, A128-D235) (domain or fragment)

inflection temperature T i of AtLEGβ by nanoDSF at pH 6.5, equimolar AtCYT6-FL (AtLEGβ alone 49.6°C) [2]: 58.9 °C | Ki [5]: 27.8 nM | Ki [3]: 106 nM | Ki [1]: 0.29 nM | Ki [4]: 1.21 nM
Molecule: full-length AtCYT6 lacking the N-terminal signal peptide (AtCYT6-FL, A35-D235) (natural protein)
